Source: patent US11369662B2 (The Medical College of Wisconsin, Inc., priority 2014, dated 2022)
“Also recorded” adds a separate entry of the source.

How the values were obtained:
CXCR4 (Y7A, Y12A, Y21A) = biological target: T1, CXCR4 (Y7A, Y12A, Y21A) (Homo sapiens, UniProt P61073, Y12A/Y21A/Y7A); assay: Calcium flux in CHO-K1 cells, FLAG-tagged CXCR4 with Y7A, Y12A and Y21A; format: cell-based
T1 construct: expressed in transfected cells; host or cells: CHO-K1 stably expressing Galpha15 (transient)
T1 sequence (P61073 whole entry Y7A/Y12A/Y21A): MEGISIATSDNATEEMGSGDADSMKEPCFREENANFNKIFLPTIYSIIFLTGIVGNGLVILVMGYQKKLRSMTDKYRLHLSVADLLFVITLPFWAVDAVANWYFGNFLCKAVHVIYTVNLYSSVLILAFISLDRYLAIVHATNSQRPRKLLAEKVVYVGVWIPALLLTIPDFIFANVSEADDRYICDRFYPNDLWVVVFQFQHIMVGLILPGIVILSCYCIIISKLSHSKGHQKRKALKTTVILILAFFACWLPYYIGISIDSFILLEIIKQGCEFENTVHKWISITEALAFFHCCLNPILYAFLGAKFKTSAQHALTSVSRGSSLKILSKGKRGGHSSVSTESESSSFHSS
Method: Cell culture. Chinese hamster ovary K1 (CHO-K1) cells, stably transfected with the Gα15 gene in pcDNA3.1+, were cultured in a 1:1 mixture of Dulbecco's modified Eagle medium (DMEM) with Glutamax (Gibco):F12 nutrient mixture (Gibco) supplemented with 10% (w/v) fetal bovine serum (FBS) (Gibco). Stable expression of the Gα15 transgene was maintained by further supplementing the growth medium with 700 μg ml^−1 geneticin (Gibco).
Transfections. For transient transfections with the Flag-CXCR4 WT and N-terminally mutated constructs, the CHO-K1 Gα15 stable cells were lifted using 0.25% (v/v) trypsin-EDTA (Gibco), and 2×10^6 cells were re-plated onto 10 cm culture dishes. […] The cells were transfected 24 hours later using the Mirus TransIT-CHO Transfection Kit according to the manufacturers protocol, with the following exceptions: the amount of CHO transfection reagent was scaled up to 4 μl μg^−1 of DNA in the transfection mixtures, and the amount of CHO mojo reagent was scaled up to 1 μl μg^−1 of DNA in the mixtures. […]
Calcium flux. […] Fluorescence was measured at 310 K using a FlexStation2 Microplate Reader with excitation and emission wavelengths at 485 nm and 515 nm, respectively. […] CXCR4 variants with EC50 or maximum calcium response values more than three standard deviations from the mean CXCR4WT quantities were deemed significant.

CXCL12WT dimerization = biological target: T2, CXCL12WT dimerization (Homo sapiens, UniProt P48061); assay: Intrinsic tryptophan fluorescence polarization assay of CXCL12WT dimerization; format: binding; settings: for ΔGdimer: 298 K
T2 construct: made in house
T2 sequence (P48061 22-89): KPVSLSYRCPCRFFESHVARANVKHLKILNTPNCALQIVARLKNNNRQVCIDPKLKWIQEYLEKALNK
Method: Fluorescence polarization assay. Fluorescence polarization (FP) assays were performed on a PTI spectrofluorometer equipped with automated polarizers, using a time base polarization method provided by the program Felix32. […] Experiments were performed in duplicate and the reported dimerization Kd values reflect the average of both experiments.

CXCR4 = biological target: T3, CXCR4 (Homo sapiens, UniProt P61073); assay: β-arrestin-2 recruitment BRET assay in HEK293 cells; format: cell-based; settings: concentrations increased to 10 and 100 μM
T3 construct: purchased Millipore
T3 sequence (P61073 whole entry): as the sequence (P61073 whole entry Y7A/Y12A/Y21A) above, with A7Y, A12Y, A21Y counted along it
Method: β-arrestin-2 recruitment. β-arrestin-2 recruitment was measured using an intermolecular BRET assay performed as described previously. HEK293E cells were cotransfected with […] of CXCR4-eYFP construct with […] of β-arrestin-2-RLuc (a gift from Michel Bouvier, University of Montreal, Montreal, QC, Canada). For [acceptor]/[donor]titrations […] of β-arrestin-2-RLuc were cotransfected with increasing amounts of the CXCR4-eYFP construct. All transfections were completed to 2 mg/well with empty vector. […] Cells were washed once with PBS, and the RLuc substrate coelenterazine-II (NanoLight Technology) was added at a final concentration of […] to BRET buffer (PBS, 0.5 mM MgCl2, 0.1% w/v glucose). β-arrestin recruitment was measured 30 min after ligand addition. […]
β-arrestin-2 recruitment. β-arrestin-2 recruitment was measured using an intermolecular BRET assay performed as described previously. […] The medium of the cells was then changed to BRET buffer (PBS, 0.5 mM MgC2, 0.1% (w/v) BSA). β-arrestin-2 recruitment was measured 15 min after ligand addition, and 10 min after the addition of the RLuc3 substrate coelenterazine400a (NanoLight Technology) at a final concentration of […]. […]

CXCL12WT: wild type CXCL12 (stromal cell-derived factor-1/SDF-1), SEQ ID NO:1
efficacy (maximum calcium response) (CXCR4 (Y7A, Y12A, Y21A)): ~20 % of the wildtype receptor
potency (calcium response) (CXCR4 (Y7A, Y12A, Y21A); relative to CXCR4(Y21A)): did not further diminish the potency relative to CXCR4(Y21A)
ΔGdimer (CXCL12WT dimerization; pathway 1: dimerization after sTyr21 sulfopeptide binding): −3.5 kcal mol^−
ΔGdimer (CXCL12WT dimerization; pathway 2: dimerization before sulfopeptide binding): −2.5 kcal mol^−
Kd (CXCL12WT dimerization; read-out: Kd for CXCL12WT dimerization, in the presence of 50 mM sulfotyrosine): 9.3 ± 1.8 mM
shape of β-arrestin-2 recruitment dose response (CXCR4): bimodal recruitment; also recorded: bimodal stimulation
